The values that follow come from patent US20090081707A1 (published 2009).

Assay [1] addresses trkC variant s5a immunoadhesin (trkC Val297 to Thr420 replaced with trkA Ser277 to Val402) (human). Description: competitive displacement of labelled NGF on immunoadhesin.
Assay [2] has the same target. The assay is described as follows: saturation binding with 125I-NGF on immunoadhesin.
In assay [3] the target is T1, trkB-IgG immunoadhesin (chimera of human trkB extracellular domain with human IgG-1 Fc) (human, UniProt Q16620 32-422).
T1 construct: also called trkB full length receptor (as immunoadhesin); not shown: human IgG-1 heavy chain constant region from aspartic acid 216 of the hinge to residue 441 (Kabat numbering, 114 = first)
The assay is described as follows: competitive displacement of labelled BDNF from trkB-IgG by unlabelled NT4/5.

The target in assay [4] is T2, trkA-IgG immunoadhesin (chimera of human trkA extracellular domain with human IgG-1 Fc) (human, UniProt P04629 33-408).
T2 construct: also called trkA-IgG chimera; native trkA; not shown: human IgG-1 heavy chain constant region from aspartic acid 216 of the hinge to residue 441 (Kabat numbering, 114 = first)
The assay is described as follows: competitive displacement of iodinated neurotrophin from trk-IgG.

Assay [5] has as its target T1, trkB-IgG immunoadhesin (chimera of …). Description: competitive displacement of labelled BDNF from trkB-IgG by unlabelled NT3.
Assay [6] shares this target. The assay is described as follows: competitive displacement of labelled BDNF from trkB-IgG by unlabelled BDNF.
Assay [7] deals with T3, trkC-IgG immunoadhesin (chimera of human trkC extracellular domain with human IgG-1 Fc) (human, UniProt Q16288 32-413).
T3 construct: also called trkC wild-type; trkC full length receptor (as immunoadhesin); not shown: human IgG-1 heavy chain constant region from aspartic acid 216 of the hinge to residue 441 (Kabat numbering, 114 = first)
Description: competitive displacement of labelled BDNF on immunoadhesin.

In general, IC50 refers to the concentration at which inhibition is half-maximal. A higher IC50 goes with lower potency. A word on the Kd: it is the equilibrium constant for the complex coming apart. The low end stands for a tighter complex, the high end for a looser complex.

T1 sequence (Q16620 32-422 limits assumed, change not shown): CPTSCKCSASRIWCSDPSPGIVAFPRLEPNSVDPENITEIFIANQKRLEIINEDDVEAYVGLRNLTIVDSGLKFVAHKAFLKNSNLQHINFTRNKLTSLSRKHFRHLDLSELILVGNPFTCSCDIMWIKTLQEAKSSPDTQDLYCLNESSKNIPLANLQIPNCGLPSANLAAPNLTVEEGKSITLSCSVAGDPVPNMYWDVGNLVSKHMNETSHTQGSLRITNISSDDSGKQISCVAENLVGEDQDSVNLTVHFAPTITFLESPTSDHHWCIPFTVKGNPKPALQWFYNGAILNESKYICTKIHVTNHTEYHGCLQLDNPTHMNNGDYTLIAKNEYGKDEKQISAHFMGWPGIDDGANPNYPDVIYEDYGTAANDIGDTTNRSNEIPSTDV
trkC variant s5a immunoadhesin (trkC Val297 to Thr420 replaced with trkA Ser277 to Val402) (human), sequence (chain, as listed by the source mutant): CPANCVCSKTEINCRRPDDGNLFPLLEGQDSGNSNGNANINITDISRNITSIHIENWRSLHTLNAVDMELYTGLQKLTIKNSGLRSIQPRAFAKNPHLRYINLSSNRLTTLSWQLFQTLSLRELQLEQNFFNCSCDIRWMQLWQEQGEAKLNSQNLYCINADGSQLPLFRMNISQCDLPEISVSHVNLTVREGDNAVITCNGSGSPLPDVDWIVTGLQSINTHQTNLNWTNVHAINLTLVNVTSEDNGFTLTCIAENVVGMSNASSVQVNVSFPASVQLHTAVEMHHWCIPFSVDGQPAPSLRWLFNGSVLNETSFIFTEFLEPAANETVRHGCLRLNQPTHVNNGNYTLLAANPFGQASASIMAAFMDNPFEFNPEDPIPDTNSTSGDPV
T2 sequence (P04629 other isoform, or with tags, fused parts or gaps mutant limits assumed): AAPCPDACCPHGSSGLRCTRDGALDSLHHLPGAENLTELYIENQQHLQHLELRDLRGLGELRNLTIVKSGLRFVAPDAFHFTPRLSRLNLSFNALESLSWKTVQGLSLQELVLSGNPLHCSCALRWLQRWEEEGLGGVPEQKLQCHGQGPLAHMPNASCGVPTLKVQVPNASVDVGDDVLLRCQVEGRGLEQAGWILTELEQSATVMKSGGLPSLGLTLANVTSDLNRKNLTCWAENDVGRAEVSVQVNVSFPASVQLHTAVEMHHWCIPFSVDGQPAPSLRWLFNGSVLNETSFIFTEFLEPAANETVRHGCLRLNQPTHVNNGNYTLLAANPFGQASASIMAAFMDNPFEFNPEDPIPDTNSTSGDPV

Regarding “nerve growth factor (NGF) (from UniProt P01138 122-241) (ligand)”, the 50% inhibitory concentration (IC50) in assay [1] was determined as 0.0393 nM. Moreover, the Kd in assay [2] is 0.0386 nM.

B1: neurotrophin-4/5 (NT-4/5) (ligand)
chain: GVSETAPASRRGELAVCDAVSGWVTDRRTAVDLRGREVEVLGEVPAAGGSPLRQYFFETRCKADNAEEGGPGAGGGGCRGVDRRHWVSECKAKQSYVRALTADAQGRVGWRWIRIDTACVCTLLSRTGRA
notes: also called NT5
Regarding B1, the IC50 in assay [3] turned out to be 0.2 nM. In addition, the binding result in assay [4] is recorded as “binds”.

B2: neurotrophin-3 (NT-3) (ligand)
chain: YAEHKSHRGEYSVCDSESLWVTDKSSAIDIRGHQVTVLGEIKTGNSPVKQYFYETRCKEARPVKNGCRGIDDKHWNSQCKTSQTYVRALTSENNKLVGWRWIRIDTSCVCALSRKIGRT
Consider B2, for which the half-inhibitory concentration (IC50) in assay [5] came out at 18 nM.

B3: brain-derived neurotrophic factor (BDNF) (ligand)
chain: HSDPARRGELSVCDSISEWVTAADKKTAVDMSGGTVTVLEKVPVSKGQLKQYFYETKCNPMGYTKEGCRGIDKRHWNSQCRTTQSYVRALTMDSKKRIGWRFIRIDTSCVCTLTIKRGR
notes: also called NT-2
With B3, the 50% inhibitory concentration (IC50) in assay [6] worked out at 0.081 nM. Besides, in assay [7], the binding result is listed as “no binding”.
